Source: patent publication US20240327530A1 (ICHNOS SCIENCES, published 2024)

Key:
[1] = target: T1, Cynomolgus IL-1RAP on normal cynomolgus dermal fibroblasts (cynomolgus monkey, UniProt P59822 21-570 (rhesus entry)); assay: flow cytometry on normal cynomolgus fibroblasts, nonlinear sigmoidal regression
T1 construct: Endogenous protein on cells; also called Cyno IL-1RAP
T1 sequence: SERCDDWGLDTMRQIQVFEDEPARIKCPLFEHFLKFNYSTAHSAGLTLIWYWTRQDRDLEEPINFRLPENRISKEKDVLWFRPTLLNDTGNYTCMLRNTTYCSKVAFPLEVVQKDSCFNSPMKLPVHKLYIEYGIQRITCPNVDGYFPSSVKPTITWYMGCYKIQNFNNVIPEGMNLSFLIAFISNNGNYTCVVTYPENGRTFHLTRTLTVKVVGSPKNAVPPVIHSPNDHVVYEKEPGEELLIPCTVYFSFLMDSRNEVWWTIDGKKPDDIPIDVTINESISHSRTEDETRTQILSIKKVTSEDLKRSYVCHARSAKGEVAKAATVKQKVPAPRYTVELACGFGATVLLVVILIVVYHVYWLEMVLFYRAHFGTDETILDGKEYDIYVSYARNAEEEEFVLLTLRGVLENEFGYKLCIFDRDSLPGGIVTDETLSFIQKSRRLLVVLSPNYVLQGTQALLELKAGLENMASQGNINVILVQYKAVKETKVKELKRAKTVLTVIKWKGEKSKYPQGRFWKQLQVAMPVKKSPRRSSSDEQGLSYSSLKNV
Procedure: (§1) Bound antibodies were detected with a monoclonal anti-human IgG PE-Cyanine7 secondary antibody. The graphs show the nonlinear sigmoidal regression binding curves (Relative Geometric Mean Fluorescence Intensity) for each cell lines. Each data point is a measurement for a given cell line. Multiple independent experiments were performed across several donors (HaCaT and HaCaT IL-1RAP KO: 4 and 3 independent experiments; Human Dermal Fibroblasts: 2 independent experiments—total of 5 donors; Human Neutrophil: 2 experiments—total of 6 donors; Cyno Dermal Fibroblasts: 2 independent experiment—total of 4 donors).
In brief, cells were harvested, counted, and plated at 50,000 cells/well in a 96-well round-bottom plate. The plate was centrifuged at 350 g for 3 minutes and the cells were resuspended in 50 μl of FACS® buffer (PBS (1×)+2.5% FCS+2 mM EDTA+0.05% NaN₃) containing various concentrations (ranging from 50 to 0.00003 μg/ml) of either anti-human IL-1RAP_candidate_1 or Isotype control_5 antibodies. […] The cells were gated based on size on FSC vs SSC and analyzed for PE-Cyanine7-geometric mean (geomean) fluorescence intensity using FLOWJO® software. Finally, relative geomean fluorescence intensity was calculated by subtracting fluorescence of anti-human IL-1RAP_candidate_1 per fluorescence of Isotype control_5. […]

[2] = target: T2, Human IL-1RAP, membrane-bound on human cells (HaCaT, dermal fibroblasts, neutrophils, PBMC, whole blood) (human, UniProt Q9NPH3 21-570); assay: flow cytometry on HaCaT wild-type cells, anti-human IgG PE-Cyanine7, relative geometric MFI (isotype subtracted)
T2 construct: Endogenous protein on cells
T2 sequence: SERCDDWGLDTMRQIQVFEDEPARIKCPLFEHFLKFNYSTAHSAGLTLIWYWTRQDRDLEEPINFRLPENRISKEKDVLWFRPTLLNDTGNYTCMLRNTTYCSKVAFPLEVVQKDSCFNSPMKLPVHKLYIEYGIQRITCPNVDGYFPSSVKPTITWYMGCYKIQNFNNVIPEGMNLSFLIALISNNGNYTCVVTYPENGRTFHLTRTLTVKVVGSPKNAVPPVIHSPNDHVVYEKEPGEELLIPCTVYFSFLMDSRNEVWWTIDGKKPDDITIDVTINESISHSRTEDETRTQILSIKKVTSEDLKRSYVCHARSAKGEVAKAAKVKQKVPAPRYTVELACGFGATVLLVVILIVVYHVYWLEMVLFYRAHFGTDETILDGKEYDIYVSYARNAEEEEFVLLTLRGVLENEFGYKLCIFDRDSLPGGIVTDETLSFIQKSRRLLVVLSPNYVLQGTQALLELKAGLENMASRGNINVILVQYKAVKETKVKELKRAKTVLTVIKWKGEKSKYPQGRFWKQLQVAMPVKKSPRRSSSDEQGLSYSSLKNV
Procedure: as §1, with “A dose-response of anti-human IL-1RAP_candidate_1 (●) or Isotype control_5 (▪) was incubated with various cell lines and cell types. Bound” for “Bound”
In brief, cells were harvested, counted, and plated at 50,000 cells/well in a 96-well round-bottom plate. […] The cells were gated based on size on FSC vs SSC and analyzed for PE-Cyanine7-geometric mean (geomean) fluorescence intensity using FLOWJO® software. Finally, relative geomean fluorescence intensity was calculated by subtracting fluorescence of anti-human IL-1RAP_candidate_1 per fluorescence of Isotype control_5. […]

B1: Anti-IL-1RAP-C8-RecC-ES-IgG1LALA (antibody, V domains shown)
VH: QVQLVQSGAEVKKPGSSVKVSCKASGSPAEPYAIQWVRQAPGQGLEWMGYIIPSLGGYDYAQKFQGRVTITADESTSTAYMELSSLRSEDTAVYYCARGQTLYESGRQFDIWGQGTLVTVSS
VL: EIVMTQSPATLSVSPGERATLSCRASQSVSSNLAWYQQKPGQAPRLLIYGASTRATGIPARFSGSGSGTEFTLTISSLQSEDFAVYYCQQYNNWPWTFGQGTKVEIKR
notes: also called ISB 880-C8-recC-ES
- Kd [1]: 1.55 nM
- EC50 (read off the curve) [2]: ~0.1 µg/mL
